Experiments:
[1] = molecular target: T1, T Antigen-HA fusion protein (SV40, UniProt P03070 1-708); experiment: fluorescence microscopy of COS cells expressing T Antigen-HA with GFP-471-721
T1 construct: Construct is not described

SV40 T antigen = molecular target: T2, SV40 T antigen (SV40, UniProt P03070 1-708); experiment: recruitment to inclusions, fluorescence microscopy of cells
T2 construct: also called T-Ag; viral (SV40) T antigen

T1 sequence (P03070 1-708, tags or fused parts left off): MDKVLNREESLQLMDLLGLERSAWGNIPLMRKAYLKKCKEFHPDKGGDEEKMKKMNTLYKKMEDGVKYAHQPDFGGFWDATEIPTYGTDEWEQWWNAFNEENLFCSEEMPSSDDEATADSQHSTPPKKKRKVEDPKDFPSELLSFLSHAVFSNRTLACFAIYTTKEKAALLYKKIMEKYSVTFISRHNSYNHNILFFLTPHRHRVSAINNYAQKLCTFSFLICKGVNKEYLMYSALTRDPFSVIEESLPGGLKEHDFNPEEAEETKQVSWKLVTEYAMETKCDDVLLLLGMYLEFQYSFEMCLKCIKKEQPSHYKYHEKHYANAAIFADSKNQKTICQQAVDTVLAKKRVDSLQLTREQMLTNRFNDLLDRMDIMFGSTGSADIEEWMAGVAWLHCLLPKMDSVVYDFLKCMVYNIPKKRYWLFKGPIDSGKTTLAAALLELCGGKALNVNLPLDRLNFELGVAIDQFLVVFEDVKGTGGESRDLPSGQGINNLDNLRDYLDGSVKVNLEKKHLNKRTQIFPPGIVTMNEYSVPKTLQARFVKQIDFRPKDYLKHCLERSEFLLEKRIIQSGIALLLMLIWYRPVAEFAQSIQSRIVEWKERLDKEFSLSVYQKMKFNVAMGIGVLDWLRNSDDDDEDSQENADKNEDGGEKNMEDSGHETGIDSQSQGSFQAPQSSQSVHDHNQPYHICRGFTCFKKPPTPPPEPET

B1: GFP/µNS(471-721) (other)
chain: SNDVTDGIKLQLDASRQCHECPVLQQKVVELEKQIIMQKSIQSDPTPVALQPLLSQLRELSSEVTRLQMELSRAQSLNAQLEADVKSAQSCSLDMYLRHHTCINGHAKEDELLDAVVAPDVRREIMEKRSEVRQGWCERISKEAAAKCQTVIDDLTLMNGKQAQEITELRDSAEKYEKQIAELVSTITQNQITYQQELQALVAKNVELDALNQRQAKSLRITPSLLSATPIDSVDDVADLIDFSVPTDEL
notes: Expressed from pEGFP-C1-M3(471-721); GFP at the N terminus of µNS residues 471-721; also called GFP-471-721 fusion protein; EGFP/µNS(471-721); not shown: enhanced Aequorea victoria green fluorescent protein (EGFP) as encoded by the pEGFP-C1 vector (BD Biosciences); the enha
binding result [1]: no binding
binding result (SV40 T antigen): no binding
